Biological target: the molecule itself
Experiment: SEC; analytical gel filtration, 100 ug purified protein, Superdex S200 Increase 10/300, 50 mM Hepes (pH 8.0), 300 mM NaCl, 1 mM MnCl2; approximate molecular weight by interpolation of a standard curve

Protein	stoichiometry N
M17 aminopeptidase from Plasmodium falciparum, wildtype (truncated, amino acids 85-605) (enzyme, UniProt Q8IL11 85-605, looked up, Homohexamer, a dimer of trimers; also called PfA-M17; wildtype PfA-M17; source: E. coli BL21(DE3), autoinduction, purified (nickel-nitrilotriacetic acid agarose, gel filtration on Superdex S200)) ASEVPQVVSLDPTSIPIEYNTPIHDIKVQVYDIKGGCNVEEGLTIFLVNNPGKENGPVKISSKVNDKNVSEFLKDENMEKFNVKLGTSKHFYMFNDNKNSVAVGYVGCGSVADLSEADMKRVVLSLVTMLHDNKLSKLTVVFEINVDKNLFRFFLETLFYEYMTDERFKSTDKNVNMEYIKHLGVYINNADTYKEEVEKARVYYFGTYYASQLIAAPSNYCNPVSLSNAAVELAQKLNLEYKILGVKELEELKMGAYLSVGKGSMYPNKFIHLTYKSKGDVKKKIALVGKGITFDSGGYNLKAAPGSMIDLMKFDMSGCAAVLGCAYCVGTLKPENVEIHFLSAVCENMVSKNSYRPGDIITASNGKTIEVGNTDAEGRLTLADALVYAEKLGVDYIVDIATLTGAMLYSLGTSYAGVFGNNEELINKILNSSKTSNEPVWWLPIINEYRATLNSKYADINNISSSVKASSIVASLFLKEFVQNTAWAHIDIAGVSWNFKARKPKGFGVRLLTEFVLNDAL	6
PfA-M17 (A387P) (enzyme, M17 aminopeptidase of Plasmodium falciparum, amino acids 85-605, with a proline in place of Ala387 by site-directed mutagenesis (PCR); the PDB entries hold the wildtype parent; source: E. coli BL21(DE3), autoinduction, purified (nickel-nitrilotriacetic acid agarose, gel filtration on Superdex S200)) ASEVPQVVSLDPTSIPIEYNTPIHDIKVQVYDIKGGCNVEEGLTIFLVNNPGKENGPVKISSKVNDKNVSEFLKDENMEKFNVKLGTSKHFYMFNDNKNSVAVGYVGCGSVADLSEADMKRVVLSLVTMLHDNKLSKLTVVFEINVDKNLFRFFLETLFYEYMTDERFKSTDKNVNMEYIKHLGVYINNADTYKEEVEKARVYYFGTYYASQLIAAPSNYCNPVSLSNAAVELAQKLNLEYKILGVKELEELKMGAYLSVGKGSMYPNKFIHLTYKSKGDVKKKIALVGKGITFDSGGYNLKPAPGSMIDLMKFDMSGCAAVLGCAYCVGTLKPENVEIHFLSAVCENMVSKNSYRPGDIITASNGKTIEVGNTDAEGRLTLADALVYAEKLGVDYIVDIATLTGAMLYSLGTSYAGVFGNNEELINKILNSSKTSNEPVWWLPIINEYRATLNSKYADINNISSSVKASSIVASLFLKEFVQNTAWAHIDIAGVSWNFKARKPKGFGVRLLTEFVLNDAL	6
